Measured values from US20030073629A1, “Omi and domains thereof that disrupt IAP-caspase interaction” (priority 2001, published 2003).
Values belong to the molecule of their own block, whether it stands above or below them.

How the values were obtained:
MCF-7 cells [1] = assay: Immunofluorescence confocal microscopy of Omi in MCF-7 cells; assay type: cell-based; settings: TRAIL 1 μg/ml; untreated cells mostly punctate and perinuclear
MCF-7 cells [2] = assay: Apoptosis of MCF-7 cells transfected with cytosolic Omi-GFP fusion proteins; assay type: cell-based; settings: 36 hours following transfection
Experimental: (§1) FIG. 20 provides schematic diagrams of the Omi-GFP and GFP-IETD-Omi constructs used to assay the ability of Omi to induce apoptosis or to enhance apoptosis by other stimuli.
FIG. 21 is a bar graphic representation of the percentages of GFP-positive apoptotic MCF-7 cells 36 hours following transfection with M-Omi-S/A-GFP or pEGFP-N1 alone or M-Omi-GFP together with empty vector or expression construct encoding XIAP, XIAP-BIR3, or caspase-9DN. The cells were also transfected with M-Omi-GFP expression construct in the presence of zVAD-FMK (20 μM).

XIAP-BIR3 = target: T1, XIAP-BIR3 (Homo sapiens, UniProt P98170); assay: GST-BIR3 precipitation of extracts of transfected 293T cells; assay type: binding; settings: 24 hours after transfection
T1 construct: Omi associates directly with the BIR3 domain of XIAP
Experimental: FIG. 24 is a scanned image of an immunoblot with Flag-HRP antibody of 293T cells extracts precipitated with GST-BIR3 24 hours after transfection with the indicated expression constructs extracts.
(§2) Next, the contribution of the IAP binding activity of Omi to its proapoptotic activity was tested. The MTS of Omi was replaced with a GFP-IETD sequence and mutated at its active site Ser306 to Ala (FIG. 20, GFP-IETD-AVP). Of note, the presence of the IETD sequence between GFP and Omi-S/A allowed caspase-dependent cleavage at the IETD site after the Asp residue and release of mature Omi-S/A in the cytosol of the transfected 293 and MCF-7 cells (FIG. 23). […] Taken together, Omi not only can induce apoptosis through its serine protease activity but also via its ability to bind and neutralize IAPs.

[3] = target: T2, GST-BIR3 fusion protein (BIR3 domain of human XIAP) (Homo sapiens, UniProt P98170); assay: Interaction of purified recombinant proteins with GST-BIR3 fusion protein (SDS-PAGE, Coomassie); assay type: binding; settings: purified C-terminal His6-tagged recombinant protein; wild type GST-BIR3
T2 construct: Omi associates directly with the BIR3 domain of XIAP
Text: (§3) FIGS. 7A and 7B are scanned images of Coomassie stained gels representing SDS-PAGE analysis of purified C-terminal His6-tagged recombinant wild type mature Omi (WT), Omi-ΔAVPS, Omi-S306A, and mature Smac (7A) and recombinant Omi and Smac proteins with GST-BIR1, GST-BIR2, GST-BIR3, or GST-BIR3-E314S fusion proteins (7B).
(§4) To determine whether a recombinant Omi lacking the first 133 residues (mature Omi) can interact with the GST-BIR3 fusion protein, this protein was expressed with a C-terminal His6 tag in bacteria and purified to apparent homogeneity (see FIG. 7B). […] FIGS. 7A and 7B show scanned images of Coomassie stained gels representing SDS-PAGE analysis of purified C-terminal His6-tagged recombinant wild type mature Omi (WT), Omi-ΔAVPS, Omi-S306A, and mature Smac (FIG. 7A) and recombinant Omi and Smac proteins with GST-BIR1, 2, GST-BIR3 or GST-BIR3-E314S fusion proteins (FIG. 7B).

GST-BIR3-E314S mutant = target: T3, GST-BIR3-E314S mutant (Homo sapiens, UniProt P98170, E314S); assay: Interaction of purified recombinant proteins with GST-BIR3-E314S mutant; assay type: binding; settings: purified C-terminal His6-tagged recombinant protein
T3 construct: Omi associates directly with the BIR3 domain of XIAP
Text: as §3
To confirm that Omi associates directly with the BIR3 domain of XIAP but not with the Smac protein, Smac was depleted from the 293 extracts using a Smac monoclonal antibody. Specifically, 293 cellular extracts were either left untreated (undepleted lane of FIG. 4) or depleted with a Smac antibody (lane depleted of FIG. 4). The undepleted and depleted extracts were incubated with the GST-BIR3 protein and the bound proteins were eluted as above. The eluates were then analyzed by far-western blotting with ^35S-XIAP and by western blotting with the Smac antibody as described above (see FIG. 4, left and right panels, respectively). […] The last lane of each panel in FIG. 4 represents the 293 cellular extracts that were bound to the E314S mutant GST-BIR3 fusion protein. […] The asterisk in FIG. 4 indicates non-specific bands and the arrow indicates the IgG band. […]

[4] = system: GST-BIR1, 2 fusion protein; assay: Interaction of purified recombinant proteins with GST-BIR1, 2 fusion protein; assay type: binding, human; settings: purified C-terminal His6-tagged recombinant protein
Text: as §3, §4

cIAP1 = target: T4, cIAP1 (Homo sapiens, UniProt Q13490); assay: In vitro interaction of immobilized His6-tagged protein with 35S-labeled cIAP1; assay type: binding; settings: immobilized on Talon-affinity resin; in vitro-translated 35S-labeled cIAP1
T4 construct: made in house; host or cells: in vitro translation (cell-free)
Experimental: (§5) FIG. 8 is a scanned image of an autoradiogram representing SDS-PAGE analysis of interaction of XIAP, cIAP1, and cIAP2 with mature Omi and Smac. Immobilized C-terminal His6-tagged mature Omi or Smac, or GST protein was incubated with in vitro-translated ^35S-labeled XIAP (first panel), cIAP1 (second panel), or cIAP2 (third panel). The fourth panel is a scanned image of a Coomassie stained gel of the immobilized proteins.
(§6) C-terminal His6-tagged mature Omi or Smac, or a GST protein were immobilized onto Talon-affinity resin. The bound resins were incubated with in vitro-translated ^35S-labeled XIAP (first panel), cIAP1 (second panel) or cIAP2 (third panel), washed extensively, and then analyzed by SDS polyacrylamide gel electrophoresis and autoradiography. GST was used as a negative control (second lane of each panel). The fourth panel, represents a scanned image of a Coomassie stained gel of the immobilized proteins. […] The in vitro assays were performed as described in Srinivasula, S. M. et al., J Biol Chem 275:36152-36157, 2000.

cIAP2 = target: T5, cIAP2 (Homo sapiens, UniProt Q13489); assay: In vitro interaction of immobilized His6-tagged protein with 35S-labeled cIAP2; assay type: binding; settings: immobilized on Talon-affinity resin; in vitro-translated 35S-labeled cIAP2
T5 construct: made in house; host or cells: in vitro translation (cell-free)
Experimental: as §5, §6

endogenous XIAP = target: T6, endogenous XIAP (Homo sapiens, UniProt P98170); assay: Co-immunoprecipitation with endogenous XIAP in transfected 293T cells; assay type: cell-based; settings: 293T cells transfected with C-terminal Flag-tagged Omi precursors, XIAP western blot
T6 construct: endogenous in cells; host or cells: 293T cells
Text: FIG. 9 is a scanned image of a blot representing western blot analysis using an XIAP monoclonal antibody (upper panel) or Flag antibody (middle panel) of 293T cells transfected with constructs encoding C-terminal Flag-tagged Omi wild type or mutant precursors and immunoprecipitated with Flag antibody. The lower panel is a scanned image of a blot representing total extracts probed with the XIAP antibody. Arrows indicate IgG bands.

[5] = target: T7, caspase-9 interaction with XIAP (procaspase-3 activation) (Homo sapiens, UniProt P98170); assay: Procaspase-3 activation in XIAP-containing S100 extracts stimulated with cytochrome c and dATP; assay type: biochemical; settings: S100 extracts with purified XIAP, cytochrome c plus dATP; 10, 50 or 300 ng protein
T7 construct: caspase-9: endogenous in 293T/HEK293 S100 extract
Experimental: FIG. 17 is a scanned image of an autoradiogram, representing SDS-PAGE analysis of ^35S-labeled procaspase-3 following stimulation of 293T S100 extracts (20μg) mixed with purified XIAP (50 ng) with cytochrome c (0.5 μg) plus dATP (1 mM), in the presence of increasing amounts (10, 50, or 300 ng, respectively) of purified mature WT Omi, Omi-ΔAVPS, Omi-S306A, or mature Smac in 10 μl reaction volume. In the fifth lane, S100 extracts were incubated with. 300 ng of WT Omi without XIAP.
Next, it was determined whether Omi, like Smac, promotes caspase-9 activity in HEK293 S100 extracts in the presence of XIAP. To measure the caspase-9 activity in these extracts, ^35S-labeled procaspase-3 was added to the S100 extracts and stimulated the extracts with cytochrome c and dATP. […] These observations indicate that Omi, like Smac, is able to disrupt the interaction of caspase-9 with XIAP in the S100 extracts to promote procaspase-3 activation.

MCF-7 cells [6] = assay: TRAIL-induced apoptosis of MCF-7 cells transfected with GFP-IETD-Omi constructs; assay type: cell-based; settings: TRAIL for 16 hours, 24 hours following transfection; versus GFP transfected control cells
Experimental: as §1
FIG. 25 is a bar graphic representation of the percentages of the determined round apoptotic MCF-7 cells that were left untreated (−) or treated with TRAIL (+) for 16 hours 24 hours following transfection with the indicated expression constructs.
as §2

T1 sequence (P98170 238-358 limits assumed): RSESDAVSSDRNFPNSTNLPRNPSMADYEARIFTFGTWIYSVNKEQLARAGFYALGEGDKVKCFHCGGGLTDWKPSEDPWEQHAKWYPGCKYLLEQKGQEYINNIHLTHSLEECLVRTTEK
T2 sequence (P98170 238-358 limits assumed): as above
T4 sequence (Q13490 whole entry, species assumed): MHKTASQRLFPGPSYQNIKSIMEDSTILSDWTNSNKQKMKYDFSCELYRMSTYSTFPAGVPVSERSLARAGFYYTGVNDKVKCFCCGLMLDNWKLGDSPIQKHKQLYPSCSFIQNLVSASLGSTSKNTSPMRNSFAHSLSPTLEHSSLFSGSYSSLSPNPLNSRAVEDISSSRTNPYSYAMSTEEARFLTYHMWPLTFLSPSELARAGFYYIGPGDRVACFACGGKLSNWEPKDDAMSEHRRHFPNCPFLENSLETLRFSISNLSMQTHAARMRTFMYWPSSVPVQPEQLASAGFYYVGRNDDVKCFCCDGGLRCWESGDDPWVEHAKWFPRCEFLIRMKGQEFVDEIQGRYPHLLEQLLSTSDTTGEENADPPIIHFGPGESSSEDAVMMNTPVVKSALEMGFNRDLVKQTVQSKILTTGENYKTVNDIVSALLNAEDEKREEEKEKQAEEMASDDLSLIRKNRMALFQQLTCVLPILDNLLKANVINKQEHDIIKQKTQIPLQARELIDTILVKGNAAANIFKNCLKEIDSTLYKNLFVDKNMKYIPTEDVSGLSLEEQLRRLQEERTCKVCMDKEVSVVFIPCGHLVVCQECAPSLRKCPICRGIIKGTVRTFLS
GST-BIR1, 2 fusion protein, sequence (P98170 124-240 limits assumed): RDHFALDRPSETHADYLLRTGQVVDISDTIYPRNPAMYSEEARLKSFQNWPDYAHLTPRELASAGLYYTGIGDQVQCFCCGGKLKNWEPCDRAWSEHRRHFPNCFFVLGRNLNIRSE
T3 sequence (P98170 238-358 E314S limits assumed): as the sequence (P98170 238-358 limits assumed) above, with E77S counted along it
T7 sequence (P98170 whole entry): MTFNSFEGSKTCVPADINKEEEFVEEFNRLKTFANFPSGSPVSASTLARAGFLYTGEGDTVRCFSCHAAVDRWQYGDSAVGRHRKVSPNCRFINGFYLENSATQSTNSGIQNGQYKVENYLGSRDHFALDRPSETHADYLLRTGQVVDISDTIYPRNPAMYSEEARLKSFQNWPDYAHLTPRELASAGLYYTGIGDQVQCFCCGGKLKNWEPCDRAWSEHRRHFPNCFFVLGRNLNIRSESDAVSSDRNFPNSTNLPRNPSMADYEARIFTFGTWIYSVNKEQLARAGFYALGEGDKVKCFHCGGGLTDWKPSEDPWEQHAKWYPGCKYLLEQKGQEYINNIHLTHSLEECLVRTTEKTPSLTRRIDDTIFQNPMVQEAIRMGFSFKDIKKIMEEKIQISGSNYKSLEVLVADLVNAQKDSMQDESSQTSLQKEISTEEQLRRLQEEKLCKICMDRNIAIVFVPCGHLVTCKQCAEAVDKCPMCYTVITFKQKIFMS
T6 sequence (P98170 whole entry): as above
T5 sequence (Q13489 whole entry, species assumed): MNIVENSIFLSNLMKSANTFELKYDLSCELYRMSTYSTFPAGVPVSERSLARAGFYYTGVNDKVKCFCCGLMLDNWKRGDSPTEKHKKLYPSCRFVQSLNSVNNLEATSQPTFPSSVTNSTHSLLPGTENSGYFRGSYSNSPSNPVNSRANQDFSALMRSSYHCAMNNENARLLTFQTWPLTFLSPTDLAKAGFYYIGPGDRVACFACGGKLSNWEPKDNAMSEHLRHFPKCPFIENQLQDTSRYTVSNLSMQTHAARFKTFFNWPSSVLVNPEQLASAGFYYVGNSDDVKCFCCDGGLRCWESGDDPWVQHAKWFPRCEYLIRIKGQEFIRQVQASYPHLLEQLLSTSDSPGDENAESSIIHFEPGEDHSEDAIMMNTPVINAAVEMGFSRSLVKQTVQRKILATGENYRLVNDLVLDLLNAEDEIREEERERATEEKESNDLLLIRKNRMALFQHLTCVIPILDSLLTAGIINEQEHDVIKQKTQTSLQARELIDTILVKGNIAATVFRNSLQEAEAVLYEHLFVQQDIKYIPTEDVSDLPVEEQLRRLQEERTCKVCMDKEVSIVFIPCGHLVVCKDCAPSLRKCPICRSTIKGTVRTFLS

B1: TRAIL: apoptotic stimulus acting by TRAIL-receptor ligation (protein, UniProt P50591 1-281, looked up)
Tumor necrosis factor ligand …: MAMMEVQGGPSLGQTCVLIVIFTVLLQSLCVAVTYVYFTNELKQMQDKYSKSGIACFLKEDDSYWDPNDEESMNSPCWQVKWQLRQLVRKMILRTSEETISTVQEKQQNISPLVRERGPQRVAAHITGTRGRSNTLSSPNSKNEKALGRKINSWESSRSGHSFLSNLHLRNGELVIHEKGFYYIYSQTYFRFQEEIKENTKNDKQMVQYIYKYTSYPDPILLMKSARNSCWSKDAEYGLYSIYQGGIFELKENDRIFVSVTNEHLIDMDHEASFFGAFLVG
immunofluorescence staining pattern of Omi (MCF-7 cells [1]): showed diffused immunofluorescence staining of Omi

binding to XIAP-BIR3 (GST-BIR3) (XIAP-BIR3): do not bind XIAP-BIR3
B2: M-Omi-S/A-GFP: inactive (S306A) Omi-GFP fusion protein without the MTS (protein)
chain: MAVPSPPPASPRSQYNFIADVVEKTAPAVVYIEILDRHPFLGREVPISNGSGFVVAADGLIVTNAHVVADRRRVRVRLLSGDTYEAVVTAVDPVADIATLRIQTKEPLPTLPLGRSADVRQGEFVVAMGSPFALQNTITSGIVSSAQRPARDLGLPQTNVEYIQTDAAIDFGNAGGPLVNLDGEVIGVNTMKVTAGISFAIPSDRLREFLHRGEKKNSSSGISGSQRRYIGVMMLTLSPSILAELQLREPSFPDVQHGVLIHKVILGSPAHRAGLRPGDVILAIGEQMVQNAEDVYEAVRTQSQLAVQIRRGRETLTLYVTPEVTE
modifications: left off: large carriers
induction of apoptosis in MCF-7 cells (MCF-7 cells [2]): not the inactive M-Omi-S/A-GFP, was able to induce apoptosis

interaction with GST-BIR3-E314S mutant (GST-BIR3-E314S mutant): not with the GST-BIR3-E314S mutant | interaction with cIAP1 (cIAP1): found to also interact with cIAP1
B3: mature Omi: Omi polypeptide comprising residues 134-458 of SEQ ID NO:1; recombinant with C-terminal His6 tag (protein, listed as Homo sapiens)
chain: AVPSPPPASPRSQYNFIADVVEKTAPAVVYIEILDRHPFLGREVPISNGSGFVVAADGLIVTNAHVVADRRRVRVRLLSGDTYEAVVTAVDPVADIATLRIQTKEPLPTLPLGRSADVRQGEFVVAMGSPFALQNTITSGIVSSAQRPARDLGLPQTNVEYIQTDAAIDFGNSGGPLVNLDGEVIGVNTMKVTAGISFAIPSDRLREFLHRGEKKNSSSGISGSQRRYIGVMMLTLSPSILAELQLREPSFPDVQHGVLIHKVILGSPAHRAGLRPGDVILAIGEQMVQNAEDVYEAVRTQSQLAVQIRRGRETLTLYVTPEVTE
modifications: C-terminal His6 tag
interaction with GST-BIR3 fusion protein [3]: able to interact equally with the wild type GST-BIR3 protein | interaction with GST-BIR1, 2 fusion protein [4]: able to interact with the GST-BIR1, 2 fusion protein | interaction with cIAP2 (cIAP2): found to also interact with cIAP1 and cIAP2 | interaction with endogenous XIAP in vivo (endogenous XIAP): can also interact with endogenous XIAP in vivo | promotion of procaspase-3 activation [5]: able to promote procaspase-3 activation in the XIAP-containing S100 extracts almost to the same extent as Smac

B4: GFP-IETD-SSA: GFP-IETD-Omi-S/A with the AVPS motif mutated to SSAS motif (protein)
chain: SSASPPPASPRSQYNFIADVVEKTAPAVVYIEILDRHPFLGREVPISNGSGFVVAADGLIVTNAHVVADRRRVRVRLLSGDTYEAVVTAVDPVADIATLRIQTKEPLPTLPLGRSADVRQGEFVVAMGSPFALQNTITSGIVSSAQRPARDLGLPQTNVEYIQTDAAIDFGNAGGPLVNLDGEVIGVNTMKVTAGISFAIPSDRLREFLHRGEKKNSSSGISGSQRRYIGVMMLTLSPSILAELQLREPSFPDVQHGVLIHKVILGSPAHRAGLRPGDVILAIGEQMVQNAEDVYEAVRTQSQLAVQIRRGRETLTLYVTPEVTE
binding to XIAP-BIR3 (GST-BIR3) (XIAP-BIR3): abolished the apoptotic enhancement activity of Omi-S/A and the ability to bind to BIR3 | enhancement of TRAIL-induced apoptosis (MCF-7 cells [6]): abolished the apoptotic enhancement activity

B5: GFP-IETD-AVP: Omi with MTS replaced by a GFP-IETD sequence and active site Ser306 mutated to Ala (protein)
chain: AVPSPPPASPRSQYNFIADVVEKTAPAVVYIEILDRHPFLGREVPISNGSGFVVAADGLIVTNAHVVADRRRVRVRLLSGDTYEAVVTAVDPVADIATLRIQTKEPLPTLPLGRSADVRQGEFVVAMGSPFALQNTITSGIVSSAQRPARDLGLPQTNVEYIQTDAAIDFGNAGGPLVNLDGEVIGVNTMKVTAGISFAIPSDRLREFLHRGEKKNSSSGISGSQRRYIGVMMLTLSPSILAELQLREPSFPDVQHGVLIHKVILGSPAHRAGLRPGDVILAIGEQMVQNAEDVYEAVRTQSQLAVQIRRGRETLTLYVTPEVTE
enhancement of TRAIL-induced apoptosis (MCF-7 cells [6]): enhanced TRAIL-induced apoptosis in these cells several folds above the GFP transfected control cells
